Values of other authors in paper PMC4888498.

Key:
[1] = biological target: T1, TvFL3 Thermoplasma volcanium (Thermoplasma volcanium GSS1) (UniProt Q979L0); assay: EMSA
T1 sequence: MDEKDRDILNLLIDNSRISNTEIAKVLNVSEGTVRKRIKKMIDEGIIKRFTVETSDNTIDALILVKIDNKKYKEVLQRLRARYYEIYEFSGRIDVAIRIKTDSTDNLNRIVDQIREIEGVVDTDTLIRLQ

[2] = biological target: T2, Ss-LrpB Sulfolobus solfataricus (Saccharolobus solfataricus P2) (UniProt Q7LX67); assay: EMSA
T2 sequence: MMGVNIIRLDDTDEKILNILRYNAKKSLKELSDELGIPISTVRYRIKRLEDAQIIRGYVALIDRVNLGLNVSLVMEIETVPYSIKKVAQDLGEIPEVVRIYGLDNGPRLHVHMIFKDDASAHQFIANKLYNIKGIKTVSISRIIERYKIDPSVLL

Row | Sequence | Ka [1] [M⁻¹] | Ka [2] [M⁻¹]
1 | GAAATTAATACGACTCACTATGGGGAGAGAGACGGACGAAATTCGTCCCTGTGTGTCGCTAGTTATTGCTCAGCGGTGG (double strand) [19468044-FFRP-2] | 9e+06 | 
2 | GAAATTAATACGACTCACTATGGGGAGAGAGACGGTCGAAATTCGACCCTGTGTGTCGCTAGTTATTGCTCAGCGGTGG (double strand) [19468044-FFRP-4] | 7.3e+06 | 
3 | GAAATTAATACGACTCACTATGGGGAGAGAGACGTACGAAATTCGTACCTGTGTGTCGCTAGTTATTGCTCAGCGGTGG (double strand) [19468044-FFRP-1] | 1.28e+07 | 
4 | GAAATTAATACGACTCACTATGGGGAGAGAGACGTTCGAAATTCGAACCTGTGTGTCGCTAGTTATTGCTCAGCGGTGG (double strand) [19468044-FFRP-3] | 8.2e+06 | 
5 | GAAATTAATACGACTCACTATGGGGAGAGAGACTTGCAAAATTTGCAACTGTGTGTCGCTAGTTATTGCTCAGCGGTGG (double strand) [19468044-FFRP-7] |  | 3.5e+07
